Patent US20170355757A1 (Regeneron, published 2017)

T1: monkey C5-mmh (monkey, UniProt P01031 19-1676 (human entry), limits assumed)
T1 construct: Recombinant monkey C5 with a C-terminal myc-myc-hexahistidine tag
T1 chain: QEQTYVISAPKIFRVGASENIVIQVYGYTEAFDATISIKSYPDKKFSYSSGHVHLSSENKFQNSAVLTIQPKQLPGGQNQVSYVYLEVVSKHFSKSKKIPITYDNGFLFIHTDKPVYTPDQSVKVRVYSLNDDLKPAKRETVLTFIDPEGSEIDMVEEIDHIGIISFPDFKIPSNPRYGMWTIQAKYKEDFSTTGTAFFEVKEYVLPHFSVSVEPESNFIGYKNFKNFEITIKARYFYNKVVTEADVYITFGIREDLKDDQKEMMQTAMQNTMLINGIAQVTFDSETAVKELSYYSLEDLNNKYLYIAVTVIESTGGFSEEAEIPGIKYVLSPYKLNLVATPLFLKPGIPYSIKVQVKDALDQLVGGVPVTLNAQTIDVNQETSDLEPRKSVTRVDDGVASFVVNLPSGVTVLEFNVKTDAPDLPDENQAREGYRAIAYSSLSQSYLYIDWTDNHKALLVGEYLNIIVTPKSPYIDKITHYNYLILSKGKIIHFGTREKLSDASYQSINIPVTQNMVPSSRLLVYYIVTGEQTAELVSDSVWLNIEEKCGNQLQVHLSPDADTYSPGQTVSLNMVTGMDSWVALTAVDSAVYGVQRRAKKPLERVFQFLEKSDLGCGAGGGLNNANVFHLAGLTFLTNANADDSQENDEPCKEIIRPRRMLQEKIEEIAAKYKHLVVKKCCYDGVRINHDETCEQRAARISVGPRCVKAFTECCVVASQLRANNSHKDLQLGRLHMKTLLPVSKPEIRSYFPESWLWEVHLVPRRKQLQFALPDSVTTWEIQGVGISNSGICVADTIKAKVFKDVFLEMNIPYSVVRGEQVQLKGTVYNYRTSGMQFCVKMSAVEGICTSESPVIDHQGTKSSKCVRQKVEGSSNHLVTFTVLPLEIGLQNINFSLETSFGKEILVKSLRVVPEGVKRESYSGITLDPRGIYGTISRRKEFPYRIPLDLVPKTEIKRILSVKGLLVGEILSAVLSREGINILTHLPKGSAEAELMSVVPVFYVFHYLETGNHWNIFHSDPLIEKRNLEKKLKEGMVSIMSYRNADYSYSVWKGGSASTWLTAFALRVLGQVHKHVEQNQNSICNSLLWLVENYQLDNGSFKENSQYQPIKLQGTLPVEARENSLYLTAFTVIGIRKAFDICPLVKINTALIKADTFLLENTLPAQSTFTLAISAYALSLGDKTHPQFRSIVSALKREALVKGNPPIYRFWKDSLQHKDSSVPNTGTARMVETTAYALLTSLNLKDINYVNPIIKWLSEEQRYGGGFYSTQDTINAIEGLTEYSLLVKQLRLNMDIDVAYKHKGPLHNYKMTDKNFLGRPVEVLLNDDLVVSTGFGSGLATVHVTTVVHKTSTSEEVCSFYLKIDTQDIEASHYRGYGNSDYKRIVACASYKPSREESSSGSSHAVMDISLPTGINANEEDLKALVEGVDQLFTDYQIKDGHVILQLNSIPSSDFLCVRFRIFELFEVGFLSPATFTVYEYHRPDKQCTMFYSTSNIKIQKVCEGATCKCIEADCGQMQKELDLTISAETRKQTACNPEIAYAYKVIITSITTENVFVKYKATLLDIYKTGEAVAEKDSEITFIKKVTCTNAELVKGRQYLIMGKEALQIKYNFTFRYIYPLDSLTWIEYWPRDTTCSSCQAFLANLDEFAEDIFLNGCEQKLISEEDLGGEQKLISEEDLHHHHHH


How the values were obtained:
monkey C5-mmh = target: T1, monkey C5-mmh; test: SPR, mAb captured via anti-hFc, 37C
Protocol: (§1) Equilibrium dissociation constants (KD values) for C5 binding to purified anti-C5 antibodies were determined using a real-time surface plasmon resonance biosensor assay on a Biacore T200 instrument. The Biacore sensor surface was derivatized by amine coupling with a monoclonal mouse anti-human Fc antibody (GE Healthcare, # BR-1008-39) to capture anti-C5 antibodies expressed with human Fc constant regions. Biacore binding studies were conducted in HBST running buffer (0.01M HEPES pH 7.4, 0.15M NaCl, 3 mM EDTA, 0.05% v/v Surfactant P20).
(§2) Human C5 was obtained from a commercial source (EMD). Other C5 reagents were expressed with a C-terminal myc-myc-hexahistidine tag (subsequently referred to as C5-mmh). […] Association of all the C5 reagents to each of the captured monoclonal antibodies was monitored for 3 minutes and their dissociation in HBST running buffer was monitored for 8 minutes. All the binding kinetics experiments were performed at either 25° C. or 37° C. Kinetic association (kₐ) and dissociation (kd) rate constants were determined by fitting the real-time sensorgrams to a 1:1 binding model using Scrubber 2.0c curve fitting software. Binding dissociation equilibrium constants (KD) and dissociative half-lives (t %) were calculated from the kinetic rate constants as: KD (M)=kd/kₐ and t_{1/2} (min)=In2/(60×kd)

human C5 R885C-mmh [1] = target: T2, human C5 R885C-mmh (human, UniProt P01031 19-1676); test: SPR, mAb captured via anti-hFc, 37C
T2 construct: also called human C5 variant R885C
Protocol: as §1, §2

human C5 R885H-mmh [2] = target: T3, human C5 R885H-mmh (human, UniProt P01031 19-1676); test: SPR, mAb captured via anti-hFc, 37C
T3 construct: also called human C5 variant R885H
Protocol: as §1, §2

human C5 = target: T4, human C5 (human, UniProt P01031 19-1676); test: SPR, mAb captured via anti-hFc, dissociation at pH7.4 vs pH6.0, 25C
T4 construct: Bought human C5 (EMD #204888, said elsewhere to be purified from plasma); also called hC5; complement component 5
Protocol: Effect of pH on the rate of dissociation of recombinant human C5 bound to purified anti-C5 monoclonal antibodies was determined using a real-time surface plasmon resonance biosensor using a Biacore T200 instrument. The Biacore sensor surface was first derivatized by amine coupling with a monoclonal mouse anti-human Fc antibody (GE, # BR-1008-39) to capture anti-C5 monoclonal antibodies expressed with human IgG4 Fc. All Biacore binding studies were performed using two running buffers PBS-T, pH7.4 (0.01M Na₂HPO₄/NaH₂PO₄, 0.15M NaCl, 0.05% v/v Tween-20, adjusted to pH7.4) and PBS-T, pH6.0 (0.01M Na₂HPO₄/NaH₂PO₄, 0.15M NaCl, 0.05% v/v Tween-20, adjusted to pH6.0). […] Binding dissociative half-lives (t %) were calculated from kd as: […]

human C5 R885C-mmh [3] = target: T2, human C5 R885C-mmh; test: SPR, mAb captured via anti-hFc, 25C
Protocol: as §1, §2

human C5 R885H-mmh [4] = target: T3, human C5 R885H-mmh; test: SPR, mAb captured via anti-hFc, 25C
Protocol: as §1, §2

Row | Binder | 100 nM monkey C5-mmh Bound (RU) (monkey C5-mmh) | Kd (monkey C5-mmh) | koff (monkey C5-mmh) | kon (monkey C5-mmh) | t1/2 (monkey C5-mmh) | 100 nM Human C5 R885C-mmh Bound (RU) (human C5 R885C-mmh [1]) | Kd (human C5 R885C-mmh [1]) | koff (human C5 R885C-mmh [1]) | kon (human C5 R885C-mmh [1]) | t1/2 (human C5 R885C-mmh [1]) | 100 nM Human C5 R885H-mmh Bound (RU) (human C5 R885H-mmh [2]) | Kd (human C5 R885H-mmh [2]) | koff (human C5 R885H-mmh [2]) | kon (human C5 R885H-mmh [2]) | t1/2 (human C5 R885H-mmh [2]) | t1/2 Ratio pH7.4/pH6.0 (human C5) | 100 nM Human C5 R885C-mmh Bound (RU) (human C5 R885C-mmh [3]) | Kd (human C5 R885C-mmh [3]) | koff (human C5 R885C-mmh [3]) | kon (human C5 R885C-mmh [3]) | also measured
1 | H4H12175P (antibody, human IgG4, V domains shown, Human IgG4 Fc with S108P hinge mutation (H4H)) VH: EVQLVESGGGVVQPGGSLRLSCAASGFTFNDYAMHWVRQAPGKGLEWVSLISGDGGNTYYADSVKGRLTISRDNSKNSLYLQMNSLRTEDTALYYCAKDKGWNFGYFDLWGRGTLVTVSS VL: DIQMTQSPSSLSTSVGDRVTITCRASQNIDTYLNWYQQKPGKAPKLLIYDASSLQSGVPSRFSGSGSGTDFTLTITSLQPEDFATYYCQQNDNILHPLTFGGGTKVEIK | 74 RU | 15.6 nM | 0.00276 s⁻¹ | 177000 M⁻¹ s⁻¹ | 4 min | 4 RU | 159 nM | 0.0179 s⁻¹ | 112000 M⁻¹ s⁻¹ | 1 min | 30 RU | 69.4 nM | 0.0095 s⁻¹ | 137000 M⁻¹ s⁻¹ | 1 min | 0.9 | 128 RU | 190 nM | 0.0155 s⁻¹ | 81800 M⁻¹ s⁻¹ | t1/2 (human C5 R885C-mmh [3]): 1 min; 100 nM Human C5 R885H-mmh Bound (RU) (human C5 R885H-mmh [4]): 207 RU; Kd (human C5 R885H-mmh [4]): 10.9 nM; koff (human C5 R885H-mmh [4]): 0.00198 s⁻¹; kon (human C5 R885H-mmh [4]): 181000 M⁻¹ s⁻¹; t1/2 (human C5 R885H-mmh [4]): 6 min
2 | H4H12163P (antibody, human IgG4, V domains shown, Human IgG4 Fc with S108P hinge mutation (H4H)) VH: EVQLVESGGDLVQPGGSLRLSCAASGFTFSSYAMNWVRQGPGKGLEWVSAISGRGDSTYYADSVKGRLTISRDNSKNTLYLQMNSLRAEDTAVYYCVKEGEQLVYWYFDLWGRGTLVTVSS VL: DIQMTQSPSSLSASVGDRVTITCRASQTISNFLHWYQQKPGKAPKLLIYAASSLQSGVPSRFSGSGSGTDFTLTISSLQPEDFSTYFCQQSYTTPLTFGGGTKVEIK | 129 RU | 3.2 nM | 0.00125 s⁻¹ | 390000 M⁻¹ s⁻¹ | 9 min | 83 RU | 4.97 nM | 0.00281 s⁻¹ | 566000 M⁻¹ s⁻¹ | 4 min | 85 RU | 4 nM | 0.0029 s⁻¹ | 724000 M⁻¹ s⁻¹ | 4 min | 1.2 | 211 RU | 0.858 nM | 0.000432 s⁻¹ | 504000 M⁻¹ s⁻¹ | t1/2 (human C5 R885C-mmh [3]): 27 min; 100 nM Human C5 R885H-mmh Bound (RU) (human C5 R885H-mmh [4]): 214 RU; Kd (human C5 R885H-mmh [4]): 0.646 nM; koff (human C5 R885H-mmh [4]): 0.000434 s⁻¹; kon (human C5 R885H-mmh [4]): 672000 M⁻¹ s⁻¹; t1/2 (human C5 R885H-mmh [4]): 27 min

These reach a lower Kd (monkey C5-mmh). Values come first.

Row | 100 nM monkey C5-mmh Bound (RU) (monkey C5-mmh) | Kd (monkey C5-mmh) | koff (monkey C5-mmh) | kon (monkey C5-mmh) | t1/2 (monkey C5-mmh) | 100 nM Human C5 R885C-mmh Bound (RU) (human C5 R885C-mmh [1]) | Kd (human C5 R885C-mmh [1]) | koff (human C5 R885C-mmh [1]) | kon (human C5 R885C-mmh [1]) | t1/2 (human C5 R885C-mmh [1]) | 100 nM Human C5 R885H-mmh Bound (RU) (human C5 R885H-mmh [2]) | Kd (human C5 R885H-mmh [2]) | koff (human C5 R885H-mmh [2]) | kon (human C5 R885H-mmh [2]) | t1/2 (human C5 R885H-mmh [2]) | t1/2 Ratio pH7.4/pH6.0 (human C5) | 100 nM Human C5 R885C-mmh Bound (RU) (human C5 R885C-mmh [3]) | Kd (human C5 R885C-mmh [3]) | koff (human C5 R885C-mmh [3]) | kon (human C5 R885C-mmh [3]) | Binder | also measured
3 | 137 RU | 0.133 nM | 5.5e-05 s⁻¹ | 412000 M⁻¹ s⁻¹ | 210 min | 68 RU | 1.74 nM | 0.000975 s⁻¹ | 561000 M⁻¹ s⁻¹ | 12 min | 82 RU | 1.49 nM | 0.000948 s⁻¹ | 638000 M⁻¹ s⁻¹ | 12 min | ≤ 0.3 | 168 RU | 0.289 nM | 0.000169 s⁻¹ | 586000 M⁻¹ s⁻¹ | H4H12159P (antibody, human IgG4, V domains shown, Human IgG4 Fc with S108P hinge mutation (H4H)) VH: QVQLVESGGGVVQPGRSLRLSCGASGFTFSTYGMHWVRQAPGKGLEWVAVIWDDGNNKYYADSVKGRFTISRDNSKNTLYLQMNSLRAEDTAVYYCARDSEVAPVGDYWGQGTLVTVSS VL: DIQMTQSPSTLSASVGDRVTIICRASQSINRWLAWYQQKPGKAPKLLIYKASSLESGVPSRFSGSGSGTEFTLTISSLQPDDFAAYYCQQYNDYSYTFGQGTKLEIK | t1/2 (human C5 R885C-mmh [3]): 68 min; 100 nM Human C5 R885H-mmh Bound (RU) (human C5 R885H-mmh [4]): 177 RU; Kd (human C5 R885H-mmh [4]): 0.25 nM; koff (human C5 R885H-mmh [4]): 0.000176 s⁻¹; kon (human C5 R885H-mmh [4]): 706000 M⁻¹ s⁻¹; t1/2 (human C5 R885H-mmh [4]): 66 min
4 | 146 RU | 0.539 nM | 0.000289 s⁻¹ | 537000 M⁻¹ s⁻¹ | 40 min | 64 RU | 3.64 nM | 0.00249 s⁻¹ | 684000 M⁻¹ s⁻¹ | 5 min | 65 RU | 2.91 nM | 0.00257 s⁻¹ | 881000 M⁻¹ s⁻¹ | 5 min | 0.6 | 163 RU | 0.413 nM | 0.000294 s⁻¹ | 711000 M⁻¹ s⁻¹ | H4H12167P (antibody, human IgG4, V domains shown, Human IgG4 Fc with S108P hinge mutation (H4H)) VH: QVQLVESGGGLVKPGGSLRLSCAASGFTFSDSYMSWIRQAPGKGLEWISYIGSSGNTFYYADSVKGRFTISRDNANNLLYLQMTSLRAEDTAVYYCAREEGDFWSAVDSWGQGTLVTVSS VL: DIQLTQSPSFLSASVGDRVTITCWASQGISSYLAWYQQKPGKAPKLLIHTASTLQSGVPSRFSGSGSGTEFTLTISNLQPEDFATYYCQQLNSYPFTFGPGTKVDIK | t1/2 (human C5 R885C-mmh [3]): 39 min; 100 nM Human C5 R885H-mmh Bound (RU) (human C5 R885H-mmh [4]): 187 RU; Kd (human C5 R885H-mmh [4]): 0.433 nM; koff (human C5 R885H-mmh [4]): 0.000298 s⁻¹; kon (human C5 R885H-mmh [4]): 689000 M⁻¹ s⁻¹; t1/2 (human C5 R885H-mmh [4]): 39 min
